In publication PMC7755903 (Nature Communications, 2020):
Where “and” joins values, the source holds several entries; their conditions need not be identical. Equal entries are not always repeated.

Key:
[1] = target: T1, human βI-tryptase monomer (Homo sapiens, UniProt Q15661); assay: SPR; Biacore T200; E104 IgG variants captured on immobilised mouse anti-human IgG (Fc) antibody on CM5 chips; threefold dilutions of human βI-tryptase monomer injected at 30 µL/min, 25 °C; 1:1 Langmuir model; n = 2; settings: both partners purified
T1 construct: mature human βI-tryptase, Ile31-Pro275 of Uniprot Q15661 (Ile16-Pro246 in chymotrypsinogen numbering); The monomer used in SPR and HDX-MS; also called monomeric βI-tryptase; monomeric β-tryptase
T1 sequence (Q15661 31-275): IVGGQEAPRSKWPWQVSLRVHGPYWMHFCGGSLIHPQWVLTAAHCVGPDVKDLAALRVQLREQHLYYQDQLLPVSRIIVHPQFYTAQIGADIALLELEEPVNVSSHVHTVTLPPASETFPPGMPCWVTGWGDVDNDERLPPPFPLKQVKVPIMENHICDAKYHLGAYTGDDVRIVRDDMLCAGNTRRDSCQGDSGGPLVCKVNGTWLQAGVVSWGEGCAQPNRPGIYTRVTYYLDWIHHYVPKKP

[2] = target: T2, human βI-tryptase monomer (Homo sapiens, UniProt Q15661); assay: SPR; Biacore T200; antibody captured on a CM5 chip by immobilised mouse anti-human IgG (Fc); threefold dilutions of βI-tryptase monomer injected at 30 µL/min, 25 °C, 3-min association, 10-min dissociation; 1:1 Langmuir fit; n = 2; settings: both partners purified
T2 construct: mature wild-type human βI-tryptase, Uniprot Q15661, Ile31-Pro275 (Ile16-Pro246 in chymotrypsinogen numbering); The SPR methods say only 'human βI-tryptase monomer'; The methods describe the monomeric form as the zymogen, which still carries the N-terminal His6 tag and enterokinase site before Ile16; also called monomeric βI-tryptase; β-tryptase; source: Trichoplusia ni cells (baculovirus, …)
T2 sequence (Q15661 31-275): as above

Binder | Kd [1] | Kd [2]
humanized E104.v1 IgG1 (antibody, V domains shown, humanized E104.v1 VH (rabbit E104 CDRs on the human VHIV consensus framework); Kabat numbering; human IgG1 heavy chain constant region, the CH1 domain up to the upper hinge; upper hinge of human IgG1, wild type; human IgG1 heavy chain constant region after the upper hinge (core and lower hinge, CH2, CH3); humanized E104 light chain (rabbit E104 CDRs on the human VLKI consensus framework); IgG1; …) VH: EVQLVESGPGLVKPSETLSLTCTVSRFSLIGYAITWIRQPPGKGLEWIGGISSAATTFYSSWAKSRVTISVDTSKNQFSLKLSSVTAADTAVYYCARDPRGYGAALDRLDLWGQGTLVTVSS VL: DIQMTQSPSSLSASVGDRVTITCQSIKSVYNNRLGWYQQKPGKAPKLLIYETSILTSGVPSRFSGSGSGTDFTLTISSLQPEDFATYYCAGGFDRSGDTTFGQGTKVEIK | – | 0.543 nM and 0.521 nM
E104.v2 IgG1 hinge variant G1-TH (antibody, V domains shown, variable domain of the heavy chain as in m6 (PDB 6VVU, Fab heavy chain) with V71R and F78V (Kabat numbering); human IgG1 heavy chain constant region before the upper hinge (CH1); upper hinge of the variant; human IgG1 heavy chain constant region after the upper hinge (core hinge from C226, CH2, CH3); as the light chain of m6 (PDB 6VVU, Fab light chain); IgG1 with a shortened upper hinge; source: …) VH: EVQLVESGPGLVKPSETLSLTCTVSRFSLIGYAITWIRQPPGKGLEWIGGISSAATTFYSSWAKSRVTISRDTSKNQVSLKLSSVTAADTAVYYCARDPRGYGAALDRLDLWGQGTLVTVSS VL: DIQMTQSPSSLSASVGDRVTITCQSIKSVYNNRLGWYQQKPGKAPKLLIYETSILTSGVPSRFSGSGSGTDFTLTISSLQPEDFATYYCAGGFDRSGDTTFGQGTKVEIK | 0.5 ± 0.07 nM | –
E104.v2 IgG1 hinge variant G1 + GG (antibody, V domains shown, humanized E104.v2 VH: as the VH of Sm2 (E104.v1, PDB 6VVU heavy chain) with V71R and F78V (Kabat numbering); human IgG1 heavy chain constant region, the CH1 domain up to the upper hinge; human IgG1 heavy chain constant region after the upper hinge (core and lower hinge, CH2, CH3); IgG1 with extended upper hinge; copies: 2 + 2) VH: EVQLVESGPGLVKPSETLSLTCTVSRFSLIGYAITWIRQPPGKGLEWIGGISSAATTFYSSWAKSRVTISRDTSKNQVSLKLSSVTAADTAVYYCARDPRGYGAALDRLDLWGQGTLVTVSS VL: DIQMTQSPSSLSASVGDRVTITCQSIKSVYNNRLGWYQQKPGKAPKLLIYETSILTSGVPSRFSGSGSGTDFTLTISSLQPEDFATYYCAGGFDRSGDTTFGQGTKVEIK | – | 0.448 nM and 0.422 nM
E104.v2 IgG1 hinge variant G1 + G (antibody, V domains shown, humanized E104.v2 VH: as the VH of Sm2 (E104.v1, PDB 6VVU heavy chain) with V71R and F78V (Kabat numbering); human IgG1 heavy chain constant region, the CH1 domain up to the upper hinge; human IgG1 heavy chain constant region after the upper hinge (core and lower hinge, CH2, CH3); IgG1 with extended upper hinge; copies: 2 + 2) VH: EVQLVESGPGLVKPSETLSLTCTVSRFSLIGYAITWIRQPPGKGLEWIGGISSAATTFYSSWAKSRVTISRDTSKNQVSLKLSSVTAADTAVYYCARDPRGYGAALDRLDLWGQGTLVTVSS VL: DIQMTQSPSSLSASVGDRVTITCQSIKSVYNNRLGWYQQKPGKAPKLLIYETSILTSGVPSRFSGSGSGTDFTLTISSLQPEDFATYYCAGGFDRSGDTTFGQGTKVEIK | – | 0.538 nM and 0.521 nM
humanized E104.v2 IgG2 (antibody, V domains shown, humanized E104.v2 VH: as the VH of Sm2 (E104.v1, PDB 6VVU heavy chain) with V71R and F78V (Kabat numbering); human IgG2 heavy chain constant region, the CH1 domain up to the upper hinge; upper hinge of human IgG2; human IgG2 heavy chain constant region after the upper hinge (core and lower hinge, CH2, CH3); IgG2 isotype version of E104.v2; copies: 2 + 2) VH: EVQLVESGPGLVKPSETLSLTCTVSRFSLIGYAITWIRQPPGKGLEWIGGISSAATTFYSSWAKSRVTISRDTSKNQVSLKLSSVTAADTAVYYCARDPRGYGAALDRLDLWGQGTLVTVSS VL: DIQMTQSPSSLSASVGDRVTITCQSIKSVYNNRLGWYQQKPGKAPKLLIYETSILTSGVPSRFSGSGSGTDFTLTISSLQPEDFATYYCAGGFDRSGDTTFGQGTKVEIK | – | 0.537 nM and 0.672 nM

Other lines, results leading:

Kd [1] | Kd [2] | Binder
0.5 ± 0.1 nM | – | E104.v2 IgG1 hinge variant G1 + (GGS)3 (antibody, V domains shown, variable domain of the heavy chain as in m6 (PDB 6VVU, Fab heavy chain) with V71R and F78V (Kabat numbering); human IgG1 heavy chain constant region before the upper hinge (CH1); upper hinge of the variant; human IgG1 heavy chain constant region after the upper hinge (core hinge from C226, CH2, CH3); as the light chain of m6 (PDB 6VVU, Fab light chain); IgG1 with an extended upper hinge; source: …) VH: EVQLVESGPGLVKPSETLSLTCTVSRFSLIGYAITWIRQPPGKGLEWIGGISSAATTFYSSWAKSRVTISRDTSKNQVSLKLSSVTAADTAVYYCARDPRGYGAALDRLDLWGQGTLVTVSS VL: DIQMTQSPSSLSASVGDRVTITCQSIKSVYNNRLGWYQQKPGKAPKLLIYETSILTSGVPSRFSGSGSGTDFTLTISSLQPEDFATYYCAGGFDRSGDTTFGQGTKVEIK
0.6 ± 0.1 nM | – | E104.v2 IgG1 hinge variant G1-H (antibody, V domains shown, variable domain of the heavy chain as in m6 (PDB 6VVU, Fab heavy chain) with V71R and F78V (Kabat numbering); human IgG1 heavy chain constant region before the upper hinge (CH1); upper hinge of the variant; human IgG1 heavy chain constant region after the upper hinge (core hinge from C226, CH2, CH3); as the light chain of m6 (PDB 6VVU, Fab light chain); IgG1 with a shortened upper hinge; source: …) VH: EVQLVESGPGLVKPSETLSLTCTVSRFSLIGYAITWIRQPPGKGLEWIGGISSAATTFYSSWAKSRVTISRDTSKNQVSLKLSSVTAADTAVYYCARDPRGYGAALDRLDLWGQGTLVTVSS VL: DIQMTQSPSSLSASVGDRVTITCQSIKSVYNNRLGWYQQKPGKAPKLLIYETSILTSGVPSRFSGSGSGTDFTLTISSLQPEDFATYYCAGGFDRSGDTTFGQGTKVEIK
0.4 ± 0.1 nM | – | E104.v2 IgG1 hinge variant G1.P5 (antibody, V domains shown, variable domain of the heavy chain as in m6 (PDB 6VVU, Fab heavy chain) with V71R and F78V (Kabat numbering); human IgG1 heavy chain constant region before the upper hinge (CH1); upper hinge of the variant; human IgG1 heavy chain constant region after the upper hinge (core hinge from C226, CH2, CH3); as the light chain of m6 (PDB 6VVU, Fab light chain); IgG1 with five prolines in the upper hinge; …) VH: EVQLVESGPGLVKPSETLSLTCTVSRFSLIGYAITWIRQPPGKGLEWIGGISSAATTFYSSWAKSRVTISRDTSKNQVSLKLSSVTAADTAVYYCARDPRGYGAALDRLDLWGQGTLVTVSS VL: DIQMTQSPSSLSASVGDRVTITCQSIKSVYNNRLGWYQQKPGKAPKLLIYETSILTSGVPSRFSGSGSGTDFTLTISSLQPEDFATYYCAGGFDRSGDTTFGQGTKVEIK
0.4 ± 0.02 nM | – | E104.v2 IgG1 hinge variant G1 + GG (antibody, V domains shown, variable domain of the heavy chain as in m6 (PDB 6VVU, Fab heavy chain) with V71R and F78V (Kabat numbering); human IgG1 heavy chain constant region before the upper hinge (CH1); upper hinge of the variant; human IgG1 heavy chain constant region after the upper hinge (core hinge from C226, CH2, CH3); as the light chain of m6 (PDB 6VVU, Fab light chain); IgG1 with an extended upper hinge; source: …) VH: EVQLVESGPGLVKPSETLSLTCTVSRFSLIGYAITWIRQPPGKGLEWIGGISSAATTFYSSWAKSRVTISRDTSKNQVSLKLSSVTAADTAVYYCARDPRGYGAALDRLDLWGQGTLVTVSS VL: DIQMTQSPSSLSASVGDRVTITCQSIKSVYNNRLGWYQQKPGKAPKLLIYETSILTSGVPSRFSGSGSGTDFTLTISSLQPEDFATYYCAGGFDRSGDTTFGQGTKVEIK
0.6 ± 0.1 nM | – | E104.v2 IgG1 hinge variant G1.G5 (antibody, V domains shown, variable domain of the heavy chain as in m6 (PDB 6VVU, Fab heavy chain) with V71R and F78V (Kabat numbering); human IgG1 heavy chain constant region before the upper hinge (CH1); upper hinge of the variant; human IgG1 heavy chain constant region after the upper hinge (core hinge from C226, CH2, CH3); as the light chain of m6 (PDB 6VVU, Fab light chain); IgG1 with five glycines in the upper hinge; …) VH: EVQLVESGPGLVKPSETLSLTCTVSRFSLIGYAITWIRQPPGKGLEWIGGISSAATTFYSSWAKSRVTISRDTSKNQVSLKLSSVTAADTAVYYCARDPRGYGAALDRLDLWGQGTLVTVSS VL: DIQMTQSPSSLSASVGDRVTITCQSIKSVYNNRLGWYQQKPGKAPKLLIYETSILTSGVPSRFSGSGSGTDFTLTISSLQPEDFATYYCAGGFDRSGDTTFGQGTKVEIK
